According to US20210290727A1 (UNIVERSITY OF MARYLAND BALTIMORE, published 2021):

What was measured:
FLAG-tagged TSC1 = target: T1, FLAG-tagged TSC1 (UniProt Q92574 1-1164); experiment: NanoSPD (nanoTRAP) filopodia co-accumulation in COS-7 cells
T1 construct: also called pRK7-FLAG-TSC1; not shown: FLAG tag
T1 sequence (looked up): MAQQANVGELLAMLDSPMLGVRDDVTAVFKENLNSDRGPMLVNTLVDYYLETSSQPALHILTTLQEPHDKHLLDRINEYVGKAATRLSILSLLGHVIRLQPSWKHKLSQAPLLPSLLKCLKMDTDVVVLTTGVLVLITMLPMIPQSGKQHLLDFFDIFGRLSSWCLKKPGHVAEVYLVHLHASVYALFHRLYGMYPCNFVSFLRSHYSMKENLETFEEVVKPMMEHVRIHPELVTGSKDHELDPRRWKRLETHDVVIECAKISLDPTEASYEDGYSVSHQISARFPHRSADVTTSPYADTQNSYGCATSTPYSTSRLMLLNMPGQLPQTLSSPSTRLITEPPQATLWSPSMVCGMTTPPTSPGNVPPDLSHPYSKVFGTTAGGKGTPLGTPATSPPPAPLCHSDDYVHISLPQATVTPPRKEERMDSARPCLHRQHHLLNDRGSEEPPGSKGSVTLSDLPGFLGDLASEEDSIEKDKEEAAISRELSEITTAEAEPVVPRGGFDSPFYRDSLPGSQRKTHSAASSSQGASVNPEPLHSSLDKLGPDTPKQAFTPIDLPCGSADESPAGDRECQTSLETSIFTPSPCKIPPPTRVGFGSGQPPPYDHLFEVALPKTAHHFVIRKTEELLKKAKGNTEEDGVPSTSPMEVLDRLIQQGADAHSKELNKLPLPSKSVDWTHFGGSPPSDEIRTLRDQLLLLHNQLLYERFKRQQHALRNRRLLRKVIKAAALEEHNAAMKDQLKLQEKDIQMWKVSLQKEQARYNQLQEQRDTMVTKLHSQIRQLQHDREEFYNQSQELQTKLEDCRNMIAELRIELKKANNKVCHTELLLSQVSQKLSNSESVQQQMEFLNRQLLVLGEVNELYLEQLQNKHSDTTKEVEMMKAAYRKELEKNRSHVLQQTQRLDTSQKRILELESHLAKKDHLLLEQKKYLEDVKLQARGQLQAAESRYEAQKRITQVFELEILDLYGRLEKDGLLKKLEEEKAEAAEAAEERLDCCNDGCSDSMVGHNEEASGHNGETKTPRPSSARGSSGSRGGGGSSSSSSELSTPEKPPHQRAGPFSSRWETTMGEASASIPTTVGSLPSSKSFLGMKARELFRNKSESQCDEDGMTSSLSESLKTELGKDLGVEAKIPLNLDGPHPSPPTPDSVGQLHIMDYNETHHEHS

FLAG-tagged TSC2 = target: T2, FLAG-tagged TSC2 (UniProt P49815 1-1807, limits assumed); experiment: as above
T2 construct: also called pRK7-FLAG-TSC2; not shown: FLAG tag
T2 sequence (P49815 whole entry): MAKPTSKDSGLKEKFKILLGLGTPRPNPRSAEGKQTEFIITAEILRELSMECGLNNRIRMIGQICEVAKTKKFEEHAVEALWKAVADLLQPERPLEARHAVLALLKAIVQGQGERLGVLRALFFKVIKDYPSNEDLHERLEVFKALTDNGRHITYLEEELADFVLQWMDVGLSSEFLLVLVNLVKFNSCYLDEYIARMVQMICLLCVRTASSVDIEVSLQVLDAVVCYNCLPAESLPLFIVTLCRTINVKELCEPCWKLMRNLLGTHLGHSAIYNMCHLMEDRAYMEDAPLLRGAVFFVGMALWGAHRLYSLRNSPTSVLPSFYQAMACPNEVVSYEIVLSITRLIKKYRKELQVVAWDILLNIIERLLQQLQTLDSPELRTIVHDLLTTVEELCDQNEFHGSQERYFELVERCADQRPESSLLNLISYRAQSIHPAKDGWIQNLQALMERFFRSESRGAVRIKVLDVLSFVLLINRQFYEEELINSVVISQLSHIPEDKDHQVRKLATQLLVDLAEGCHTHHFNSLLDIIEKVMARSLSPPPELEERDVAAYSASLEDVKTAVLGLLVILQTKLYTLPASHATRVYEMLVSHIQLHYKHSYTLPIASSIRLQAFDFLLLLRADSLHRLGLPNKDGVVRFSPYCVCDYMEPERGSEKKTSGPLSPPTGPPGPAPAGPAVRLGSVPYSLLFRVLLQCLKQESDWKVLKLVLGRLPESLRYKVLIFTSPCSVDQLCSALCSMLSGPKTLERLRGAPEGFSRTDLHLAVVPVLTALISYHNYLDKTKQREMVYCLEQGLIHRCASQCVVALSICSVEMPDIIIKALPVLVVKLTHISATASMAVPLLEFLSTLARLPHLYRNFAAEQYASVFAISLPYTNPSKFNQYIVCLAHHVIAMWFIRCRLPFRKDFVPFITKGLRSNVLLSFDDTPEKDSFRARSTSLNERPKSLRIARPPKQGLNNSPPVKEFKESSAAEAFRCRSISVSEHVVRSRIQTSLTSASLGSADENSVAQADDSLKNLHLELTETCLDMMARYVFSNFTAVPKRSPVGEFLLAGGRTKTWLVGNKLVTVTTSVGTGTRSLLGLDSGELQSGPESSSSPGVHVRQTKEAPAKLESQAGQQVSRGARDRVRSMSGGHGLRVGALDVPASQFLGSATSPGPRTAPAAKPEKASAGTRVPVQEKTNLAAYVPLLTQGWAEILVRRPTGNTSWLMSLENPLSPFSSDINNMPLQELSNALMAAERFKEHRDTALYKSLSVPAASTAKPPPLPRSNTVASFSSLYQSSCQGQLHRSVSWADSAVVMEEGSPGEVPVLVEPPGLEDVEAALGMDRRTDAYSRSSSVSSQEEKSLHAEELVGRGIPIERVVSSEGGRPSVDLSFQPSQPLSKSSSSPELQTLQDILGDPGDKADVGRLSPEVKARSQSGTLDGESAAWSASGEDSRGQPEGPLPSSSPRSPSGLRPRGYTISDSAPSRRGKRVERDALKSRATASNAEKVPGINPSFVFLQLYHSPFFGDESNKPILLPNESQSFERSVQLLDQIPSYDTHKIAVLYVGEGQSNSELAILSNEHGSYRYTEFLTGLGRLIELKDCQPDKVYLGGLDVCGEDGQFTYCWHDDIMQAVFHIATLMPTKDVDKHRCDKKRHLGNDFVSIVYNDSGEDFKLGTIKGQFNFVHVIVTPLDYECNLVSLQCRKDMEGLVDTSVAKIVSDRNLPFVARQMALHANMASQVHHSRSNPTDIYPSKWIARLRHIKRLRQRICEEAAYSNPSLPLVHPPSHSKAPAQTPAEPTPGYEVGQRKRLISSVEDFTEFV

B1: CIB2-eGFP (other)
chain: MGNKQTIFTEEQLDNYQDCTFFNKKDILKLHSRFYELAPNLVPMDYRKSPIVHVPMSLIIQMPELRENPFKERIVAAFSEDGEGNLTFNDFVDMFSVLCESAPRELKANYAFKIYDFNTDNFICKEDLELTLARLTKSELDEEEVVLVCDKVIEEADLDGDGKLGFADFEDMIAKAPDFLSTFHIRI
notes: Expressed in COS-7 cells as bait of the NanoSPD (nanoTRAP) assay; also called hCIB2-eGFP; GFP-hCIB2; not shown: eGFP tag
- binding result (FLAG-tagged TSC1): no binding
- binding result (FLAG-tagged TSC2): no binding
